Earlier results, collected in PMC5310643.

Molecular target: κI light chain variable domain (germline) VL (Homo sapiens) (UniProt P01594)
Assay: NMR diffusion

Kd: 217 µM
Substance: κI light chain variable domain (germline) VL (from UniProt P01594)
